From IntAct's records for PubMed 18325333 come the findings set out here.

The target of this test is cdk5_mouse Cdk5 (UniProt P49615).

Chain of Cyclin-dependent kinase 5 activator 1 (Mus musculus), P61809 D288A (P61809 whole entry D288A): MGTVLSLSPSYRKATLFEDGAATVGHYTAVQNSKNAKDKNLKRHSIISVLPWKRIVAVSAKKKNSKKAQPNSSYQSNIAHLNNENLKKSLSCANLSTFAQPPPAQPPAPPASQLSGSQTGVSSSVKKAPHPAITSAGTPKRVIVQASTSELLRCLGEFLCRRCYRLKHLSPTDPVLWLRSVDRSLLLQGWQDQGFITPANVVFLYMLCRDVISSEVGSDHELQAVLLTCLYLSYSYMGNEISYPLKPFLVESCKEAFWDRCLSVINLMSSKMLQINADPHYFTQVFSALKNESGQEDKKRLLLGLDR
Chain of Cyclin-dependent kinase 5 activator 1 (Mus musculus), P61809 L289A (P61809 whole entry L289A): as the sequence (P61809 whole entry D288A) above, with A288D, L289A counted along it

For the substance “Cyclin-dependent kinase 5 activator 1 (Mus musculus), P61809 D288A”, the “effect of a mutation on the interaction” value is recorded as “disrupting interaction”.

Consider “Cyclin-dependent kinase 5 activator 1 (Mus musculus), P61809 L289A”, for which the “effect of a mutation on the interaction” value is given as “disrupting interaction”.
